To fix the notation:
B1: Antibody Ab9 (antibody, human IgG1, kappa, N297A, V domains shown)
VH: QSVEESGGRLVTPGTPLTLTCTVSGIDLSMYSMGWVRQAPGKGLEYIGWISYGGTAYYASWAKGRFTISKTSTTVELKITSPTIEDTATYFCARETPVNYYLDIWGQGTLVTVSS
VL: AYDMTQTPASVSAAVGGTVTIKCQASENIGSYLAWYQQKPGQPPELLIYRASTLASGVPSRFKGSGSGTQFTLTISGVECADAATYYCQQGYNSENLDNAFGGGTEVVVKR
B2: Antibody Ab8 (antibody, human IgG1, kappa, N297A, V domains shown)
VH: QVQLVESGGGVVQPGRSLRLSCAASGFTFSSYAMIWVRQAPGKGLEYIGYIDTDTSAYYASSVKGRFTISRDNSKNTLYLQMSSLRAEDTAVYYCARSYAAYGGYPATFDPWGQGTLVTVSS
VL: DIQMTQSPSSLSASVGDRVTITCQASEDIYNLLAWYQQKPGKVPKLLIYSASTLASGVPSRFSGSGSGTDYTLTISSLQPEDVATYYCQNNYLVTTYGVAFGGGTKVEIKR
B3: Antibody Ab13 (antibody, human IgG1, kappa, N297A, V domains shown)
VH: QSVEASGGRLVTPGTPLTLTCTASGFSLSTYWMSWVRQAPGKGLEWIGDIYFSNEETNYASWAKGRFTISKTSTTVDLNVISPTTEDTATYFCARGSPDVDIGIDMWGPGTLVTVSS
VL: AAVLTQTPSPVSAAVGGTVSISCQSSQNVYKNNYLSWYQQKPGQPPKLLIYKASTLASGVPSRFKGGGSGTDFTLTISDVQCDAAATYYCAGGYTSSSDNAFGGGTEVVVKR
B4: Antibody Ab19 (antibody, human IgG1, kappa, N297A, V domains shown)
VH: QSVEASGGRLVMPGGSLTLTCTASGFSLSTYWMSWVRQAPGKGLEWIGDIYFSNEETNYATWAKGRFTISKTSTTVDLNVISPTTEDTATYFCARGSPDVEIAIDMWGQGTLVTVSS
VL: AAVLTQTPSPVSAAVGGTVSISCQSSQNVYKNNYLSWYQQKPGQPPKLLIYKASTLASGVPSRFKGSGSGTDFTLTISDVQCDAAATYYCAGGYSSSSDNAFGGGTEVVVKR
B5: Antibody Ab10 (antibody, human IgG1, kappa, N297A, V domains shown)
VH: QVQLVESGGGVVQPGRSLRLSCAASGFTFSMYSMGWVRQAPGKGLEYIGWISYGGTAYYASSAKGRFTISRDNSKNTLYLQMSSLRAEDTAVYYCARETPVNYYLDIWGQGTLVTVSS
VL: AYDMTQSPSSLSASVGDRVTITCQASENIGSYLAWYQQKPGKVPKLLIYRASTLASGVPSRFSGSGSGTDFTLTISSLQPEDVATYYCQQGYNSENLDNAFGGGTKVEIKR
B6: Antibody Ab11 (antibody, human IgG1, kappa, N297A, V domains shown)
VH: QSLEESGGRLVTPGTPLTLTCTASGFSLSGYDMSWVRQAPGKGLEYIGLISYDGNTYYATWAKGRFTISKTSTTVDLKITSPTTEDTATYFCARSLYAGPNAGIGPFNIWGQGTLVTVSS
VL: AFELTQTPSSVEAAVGGTVTIKCQASQNIVTNLAWYQQKPGQPPKLLIYGASTLASGVSSRFKGSGSGTQFTLTISDLECADAATYFCQSYDGFNSAGFGGGTEVVVKR
B7: Antibody Ab7 (antibody, human IgG1, kappa, N297A, V domains shown)
VH: QEQLKESGGRLVTPGTPLTLTCTVSGFSLSSYAMIWVRQAPGKGLEYIGYIDTDTSAYYASWVKGRFTISRTSTTVDLKITSPTTEDTATYFCARSYAAYGGYPATFDPWGPGTLVTVSS
VL: DVVMTQTPASVSQPVGGTVTIKCQASEDIYNLLAWYQQKPGQPPKLLIYSASTLASGVPSRFKGSGSGTEYTLTISGLECADAATYYCQNNYLVTTYGVAFGGGTEVVVKR
B8: Antibody Ab12 (antibody, human IgG1, kappa, N297A, V domains shown)
VH: QVQLVESGGGVVQPGRSLRLSCAASGFSLSGYDMSWVRQAPGKGLEWVGLISYDGNTYYATSAKGRFTISRDNSKNTLYLQMSSLRAEDTAVYYCARSLYAGPNAGIGPFNIWGQGTLVTVSS
VL: AFQMTQSPSSLSASVGDRVTITCQASQNIVTNLAWYQQKPGKVPKLLIYGASTLASGVPSRFSGSGSGTDFTLTISSLQPEDVATYYCQSYDGFNSAGFGGGTKVEIKR

One may read the EC50 as the concentration that produces a half-maximal response. High values mean a less potent agent, low ones a more potent agent.

The target in this experiment is T1, Homo sapiens Beta-Nerve Growth Factor (beta-NGF) (Homo sapiens, UniProt P01138 122-241).
T1 construct: Biotinylated and held on neutravidin plates in the ELISA; also called huNGF; B-NGF
T1 sequence (P01138 122-241): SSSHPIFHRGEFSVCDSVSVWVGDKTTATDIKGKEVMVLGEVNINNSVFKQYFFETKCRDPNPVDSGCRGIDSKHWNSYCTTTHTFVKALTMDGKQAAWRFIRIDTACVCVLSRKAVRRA
Nature of the experiment: antigen binding ELISA: biotinylated NGF on neutravidin plates, anti-human Fc-HRP, OD at 450 nm. The method, then:
To identify and characterize antibodies and Fab fragments that bind to human NGF, antibody- and Fab-containing solutions were tested by ELISA. Briefly, neutravidin coated plates (Thermo Scientific), were blocked with ELISA buffer (0.1 mg/mL BSA, 1×PBS pH 7.4, 0.002% Tween 20 and 0.005% sodium azide) for 1 hr at room temperature. The plates were then coated with a 1 µg/mL biotinylated B-NGF solution in ELISA buffer for 1 hour at room temperature. This was followed by a wash step (3× using PBS plus 0.05% Tween 20) and a second block with ELISA buffer. The recombinant antibodies or Fabs were then added onto the plates and incubated for 1 hour at room temperature and then washed 3× with PBS/Tween solution. For development, an anti-human Fc-HRP or an anti-human Fab-fragment HRP (1:5000 dilution in ELISA buffer) was added onto the wells and incubated for 45 min at RT. After a 3× wash step with PBS/Tween solution, the plate was developed using TMB substrate for 3 minutes, stopped using 0.5M HCl, and read at 450 nm.
(In general: In an ELISA, binding on a coated surface is turned into a signal by an enzyme label.)
With B1, the EC50 is 0.221 nM. Consider B2, for which the midpoint of the response, the EC50, lay at 0.207 nM.

With B3, the midpoint of the response, the EC50, lay at 0.339 nM.

For the molecule B4, the EC50 came to 0.441 nM.

B5 yielded an EC50 of 0.306 nM. The same measure for B6: 0.379 nM; for B7: 0.203 nM. In turn, B8 displayed a concentration for a half-maximal effect (EC50) of 0.78 nM.
